According to publication PMC9482650, “Quantitative fragmentomics allow affinity mapping of interactomes” (Nature Communications, 2022):

T1: APBA2_1, Q99767
T1 sequence (Q99767 563-664, limits assumed, looked up): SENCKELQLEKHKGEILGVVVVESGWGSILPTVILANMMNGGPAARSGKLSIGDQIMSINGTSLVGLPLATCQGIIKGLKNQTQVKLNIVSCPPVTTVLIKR

T2: APBA2_2, Q99767
T2 sequence (Q99767 654-744, limits assumed, looked up): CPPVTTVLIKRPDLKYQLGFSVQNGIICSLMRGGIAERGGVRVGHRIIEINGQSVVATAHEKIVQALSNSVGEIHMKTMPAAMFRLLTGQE

T3: DFNB31_1, Q9P202
T3 sequence (Q9P202 135-233, limits assumed, looked up): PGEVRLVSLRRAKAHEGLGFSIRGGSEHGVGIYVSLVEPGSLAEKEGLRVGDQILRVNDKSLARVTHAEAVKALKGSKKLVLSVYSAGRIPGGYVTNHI

T4: GRIP1_2, Q9Y3R0
T4 sequence (Q9Y3R0 145-248, limits assumed, looked up): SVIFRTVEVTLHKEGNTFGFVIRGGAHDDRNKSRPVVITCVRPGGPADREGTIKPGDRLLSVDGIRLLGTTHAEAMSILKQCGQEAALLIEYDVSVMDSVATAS

T5: MPDZ_10, O75970
T5 sequence (O75970 1624-1722, limits assumed, looked up): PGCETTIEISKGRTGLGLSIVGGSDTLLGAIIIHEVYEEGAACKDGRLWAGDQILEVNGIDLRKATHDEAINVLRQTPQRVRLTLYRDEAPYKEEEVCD

T6: NHERF3_1, Q5T2W1
T6 sequence (Q5T2W1 4-100, limits assumed, looked up): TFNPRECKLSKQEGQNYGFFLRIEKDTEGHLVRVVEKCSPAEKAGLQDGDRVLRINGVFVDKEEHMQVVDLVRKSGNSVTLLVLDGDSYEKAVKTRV

T7: PARD3B_1, Q8TEW8
T7 sequence (Q8TEW8 196-299, limits assumed, looked up): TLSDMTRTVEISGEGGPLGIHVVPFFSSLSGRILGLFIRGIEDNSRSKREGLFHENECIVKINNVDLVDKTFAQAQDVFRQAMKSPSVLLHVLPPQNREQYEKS

T8: PDZRN3_1, Q9UPQ7
T8 sequence (Q9UPQ7 244-349, limits assumed, looked up): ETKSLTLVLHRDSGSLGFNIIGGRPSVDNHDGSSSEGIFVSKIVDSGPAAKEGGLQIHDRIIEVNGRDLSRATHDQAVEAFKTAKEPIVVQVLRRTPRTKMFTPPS

T9: PTPN13_1, Q12923
T9 sequence (Q12923 1088-1188, limits assumed, looked up): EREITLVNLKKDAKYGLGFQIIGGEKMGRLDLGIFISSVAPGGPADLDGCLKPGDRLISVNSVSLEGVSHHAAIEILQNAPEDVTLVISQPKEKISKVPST

T10: SNTG2, Q9NY99
T10 sequence (Q9NY99 68-166, limits assumed, looked up): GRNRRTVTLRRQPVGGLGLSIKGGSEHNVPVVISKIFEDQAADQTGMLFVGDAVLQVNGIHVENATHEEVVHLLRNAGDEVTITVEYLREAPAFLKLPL

T11: TIAM2, Q8IVF5
T11 sequence (Q8IVF5 885-986, limits assumed, looked up): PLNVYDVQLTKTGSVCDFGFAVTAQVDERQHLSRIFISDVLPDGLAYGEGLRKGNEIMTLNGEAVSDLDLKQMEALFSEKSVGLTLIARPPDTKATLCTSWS

B1: SLC9A3, P48764 (peptide)
chain: PAALPESTHM
B2: CLDN10, P78369 (peptide)
chain: SKQFDKNAYV
B3: SLC26A3, P40879 (peptide)
chain: VYEVPVETKF
B4: PALLS, Q8WX93;Q8WX93-1 (peptide)
chain: NTALVESEDL
B5: HNRNPK, P61978;P61978-2 (peptide)
chain: VKQYADVEGF

Key:
Assay in all cases: holdup assay
Design in all cases: key: below the threshold = too weak to quantify, mostly under pKd 3.1 to 4
Conditions in all cases: plain residues with an end cap or a label only (N-terminal biotin on a linker: ado-ado)
APBA2_1, Q99767 = molecular target: T1, APBA2_1, Q99767
APBA2_2, Q99767 = molecular target: T2, APBA2_2, Q99767
DFNB31_1, Q9P202 = molecular target: T3, DFNB31_1, Q9P202
DLG4_1, P78352 = molecular target: DLG4_1, P78352
Sequence of DLG4_1, P78352 (P78352 62-152): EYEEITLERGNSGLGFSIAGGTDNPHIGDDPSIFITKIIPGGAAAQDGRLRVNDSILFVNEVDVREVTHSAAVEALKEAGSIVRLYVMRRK

FRMPD2_3, Q68DX3 = molecular target: FRMPD2_3, Q68DX3
Sequence of FRMPD2_3, Q68DX3 (Q68DX3 1073-1166): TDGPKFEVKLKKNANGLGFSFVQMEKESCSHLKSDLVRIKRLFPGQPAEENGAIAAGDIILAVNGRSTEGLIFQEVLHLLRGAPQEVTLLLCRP

FRMPD3, Q5JV73 = molecular target: FRMPD3, Q5JV73
Sequence of FRMPD3, Q5JV73 (Q5JV73 12-100): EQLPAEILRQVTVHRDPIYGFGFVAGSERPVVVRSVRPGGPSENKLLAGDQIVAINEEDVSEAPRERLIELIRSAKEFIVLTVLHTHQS

GORASP1, Q9BQQ3 = molecular target: GORASP1, Q9BQQ3
Sequence of GORASP1, Q9BQQ3 (Q9BQQ3 1-208): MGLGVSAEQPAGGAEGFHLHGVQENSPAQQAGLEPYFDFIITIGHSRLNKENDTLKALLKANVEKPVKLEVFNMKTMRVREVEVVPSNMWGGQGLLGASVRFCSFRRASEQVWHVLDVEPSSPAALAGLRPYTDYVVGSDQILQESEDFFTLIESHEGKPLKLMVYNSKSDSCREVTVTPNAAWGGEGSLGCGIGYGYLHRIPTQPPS

GRIP1_2, Q9Y3R0 = molecular target: T4, GRIP1_2, Q9Y3R0
GRIP2_3, Q9C0E4 = molecular target: GRIP2_3, Q9C0E4
Sequence of GRIP2_3, Q9C0E4 (Q9C0E4 238-339): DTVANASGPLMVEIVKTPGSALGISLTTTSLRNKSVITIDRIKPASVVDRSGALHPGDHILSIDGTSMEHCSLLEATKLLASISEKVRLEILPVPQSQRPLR

GRIP2_4, Q9C0E4 = molecular target: GRIP2_4, Q9C0E4
Sequence of GRIP2_4, Q9C0E4 (Q9C0E4 446-548): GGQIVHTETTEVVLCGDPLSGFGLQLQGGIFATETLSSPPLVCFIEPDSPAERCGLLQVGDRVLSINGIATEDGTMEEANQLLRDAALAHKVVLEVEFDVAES

GRIP2_5, Q9C0E4 = molecular target: GRIP2_5, Q9C0E4
Sequence of GRIP2_5, Q9C0E4 (Q9C0E4 544-642): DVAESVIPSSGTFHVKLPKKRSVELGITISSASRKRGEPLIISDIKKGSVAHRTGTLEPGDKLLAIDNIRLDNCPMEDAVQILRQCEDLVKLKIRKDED

GRIP2_6, Q9C0E4 = molecular target: GRIP2_6, Q9C0E4
Sequence of GRIP2_6, Q9C0E4 (Q9C0E4 648-740): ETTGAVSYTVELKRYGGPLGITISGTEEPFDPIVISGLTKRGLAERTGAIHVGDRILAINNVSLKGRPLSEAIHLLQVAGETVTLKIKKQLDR

HTRA2, O43464 = molecular target: HTRA2, O43464
Sequence of HTRA2, O43464 (O43464 355-458): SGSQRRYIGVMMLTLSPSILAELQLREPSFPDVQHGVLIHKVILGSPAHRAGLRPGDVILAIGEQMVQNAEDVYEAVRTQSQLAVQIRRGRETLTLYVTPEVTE

Inadl_2, Q8NI35 = molecular target: Inadl_2, Q8NI35
Sequence of Inadl_2, Q8NI35 (Q8NI35 238-335): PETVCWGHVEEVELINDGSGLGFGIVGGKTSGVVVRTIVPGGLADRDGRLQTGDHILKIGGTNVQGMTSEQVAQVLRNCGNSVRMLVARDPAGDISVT

LAP2, Q96RT1 = molecular target: LAP2, Q96RT1
Sequence of LAP2, Q96RT1 (Q96RT1 other isoform, or with tags, fused parts or gaps): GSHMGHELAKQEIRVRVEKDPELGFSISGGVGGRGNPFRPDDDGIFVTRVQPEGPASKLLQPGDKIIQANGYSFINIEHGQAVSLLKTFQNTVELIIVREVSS

LNX1_1, Q8TBB1 = molecular target: LNX1_1, Q8TBB1
Sequence of LNX1_1, Q8TBB1 (Q8TBB1 261-371): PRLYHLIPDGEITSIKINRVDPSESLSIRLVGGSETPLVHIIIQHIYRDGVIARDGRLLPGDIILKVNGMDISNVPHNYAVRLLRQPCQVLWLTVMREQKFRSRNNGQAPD

LNX1_2, Q8TBB1 = molecular target: LNX1_2, Q8TBB1
Sequence of LNX1_2, Q8TBB1 (Q8TBB1 371-470): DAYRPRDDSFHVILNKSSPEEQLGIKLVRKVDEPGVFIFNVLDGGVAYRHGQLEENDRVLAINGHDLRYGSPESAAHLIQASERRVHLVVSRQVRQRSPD

MAGI1_1, Q96QZ7 = molecular target: MAGI1_1, Q96QZ7
Sequence of MAGI1_1, Q96QZ7 (Q96QZ7 1-106): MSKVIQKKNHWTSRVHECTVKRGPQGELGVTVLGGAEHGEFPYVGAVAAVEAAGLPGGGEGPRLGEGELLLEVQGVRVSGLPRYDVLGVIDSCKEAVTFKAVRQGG

MPDZ_10, O75970 = molecular target: T5, MPDZ_10, O75970
NHERF2_2, Q15599 = molecular target: NHERF2_2, Q15599
Sequence of NHERF2_2, Q15599 (Q15599 142-238): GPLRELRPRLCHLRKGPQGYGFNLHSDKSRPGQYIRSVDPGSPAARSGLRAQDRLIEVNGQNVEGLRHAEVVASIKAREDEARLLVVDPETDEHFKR

NHERF3_1, Q5T2W1 = molecular target: T6, NHERF3_1, Q5T2W1
PARD3B_1, Q8TEW8 = molecular target: T7, PARD3B_1, Q8TEW8
PARD3_3, Q8TEW0 = molecular target: PARD3_3, Q8TEW0
Sequence of PARD3_3, Q8TEW0 (Q8TEW0 582-685): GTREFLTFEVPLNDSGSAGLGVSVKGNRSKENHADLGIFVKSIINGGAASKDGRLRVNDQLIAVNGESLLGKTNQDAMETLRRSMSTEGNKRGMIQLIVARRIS

PDZRN3_1, Q9UPQ7 = molecular target: T8, PDZRN3_1, Q9UPQ7
PTPN13_1, Q12923 = molecular target: T9, PTPN13_1, Q12923
SNTG2, Q9NY99 = molecular target: T10, SNTG2, Q9NY99
TIAM2, Q8IVF5 = molecular target: T11, TIAM2, Q8IVF5

Binder	pKd (APBA2_1, Q99767)	pKd (APBA2_2, Q99767)	pKd (DFNB31_1, Q9P202)	pKd (DLG4_1, P78352)	pKd (FRMPD2_3, Q68DX3)	pKd (FRMPD3, Q5JV73)	pKd (GORASP1, Q9BQQ3)	pKd (GRIP1_2, Q9Y3R0)	pKd (GRIP2_3, Q9C0E4)	pKd (GRIP2_4, Q9C0E4)	pKd (GRIP2_5, Q9C0E4)	pKd (GRIP2_6, Q9C0E4)	pKd (HTRA2, O43464)	pKd (Inadl_2, Q8NI35)	pKd (LAP2, Q96RT1)	pKd (LNX1_1, Q8TBB1)	pKd (LNX1_2, Q8TBB1)	pKd (MAGI1_1, Q96QZ7)	pKd (MPDZ_10, O75970)	pKd (NHERF2_2, Q15599)	other results
B1	below the threshold	below the threshold	below the threshold	below the threshold	below the threshold	below the threshold	below the threshold	below the threshold	below the threshold	below the threshold	below the threshold	below the threshold	below the threshold	below the threshold	below the threshold	below the threshold	below the threshold	below the threshold	below the threshold	4.94	pKd (NHERF3_1, Q5T2W1): 5.37; pKd (PARD3B_1, Q8TEW8): 3.6; pKd (PARD3_3, Q8TEW0): below the threshold; pKd (PDZRN3_1, Q9UPQ7): below the threshold; pKd (PTPN13_1, Q12923): below the threshold; pKd (SNTG2, Q9NY99): below the threshold; pKd (TIAM2, Q8IVF5): below the threshold
B2	below the threshold	below the threshold	below the threshold	below the threshold	below the threshold	below the threshold	below the threshold	below the threshold	below the threshold	below the threshold	below the threshold	below the threshold	below the threshold	below the threshold	below the threshold	below the threshold	below the threshold	below the threshold	below the threshold	below the threshold	pKd (NHERF3_1, Q5T2W1): 4.85; pKd (PARD3B_1, Q8TEW8): 3.97; pKd (PARD3_3, Q8TEW0): below the threshold; pKd (PDZRN3_1, Q9UPQ7): below the threshold; pKd (PTPN13_1, Q12923): below the threshold; pKd (SNTG2, Q9NY99): below the threshold; pKd (TIAM2, Q8IVF5): below the threshold
B3	below the threshold	below the threshold	4.21	below the threshold	3.52	below the threshold	below the threshold	below the threshold	below the threshold	below the threshold	below the threshold	below the threshold	below the threshold	below the threshold	below the threshold	3.85	below the threshold	below the threshold	below the threshold	5.04	pKd (NHERF3_1, Q5T2W1): 5.51; pKd (PARD3B_1, Q8TEW8): 4.19; pKd (PARD3_3, Q8TEW0): below the threshold; pKd (PDZRN3_1, Q9UPQ7): below the threshold; pKd (PTPN13_1, Q12923): below the threshold; pKd (SNTG2, Q9NY99): below the threshold; pKd (TIAM2, Q8IVF5): 3.98
B4	below the threshold	below the threshold	below the threshold	below the threshold	below the threshold	below the threshold	below the threshold	below the threshold	below the threshold	below the threshold	below the threshold	below the threshold	below the threshold	below the threshold	below the threshold	below the threshold	below the threshold	below the threshold	below the threshold	4.64	pKd (NHERF3_1, Q5T2W1): below the threshold; pKd (PDZRN3_1, Q9UPQ7): below the threshold; pKd (PTPN13_1, Q12923): below the threshold; pKd (SNTG2, Q9NY99): below the threshold; pKd (TIAM2, Q8IVF5): below the threshold
B5	below the threshold	below the threshold	below the threshold	below the threshold	below the threshold	below the threshold	below the threshold	below the threshold	below the threshold	below the threshold	below the threshold	below the threshold	below the threshold	below the threshold	below the threshold	below the threshold	below the threshold	below the threshold	below the threshold	below the threshold	pKd (PARD3B_1, Q8TEW8): below the threshold; pKd (PARD3_3, Q8TEW0): below the threshold; pKd (PDZRN3_1, Q9UPQ7): below the threshold; pKd (PTPN13_1, Q12923): below the threshold; pKd (SNTG2, Q9NY99): below the threshold; pKd (TIAM2, Q8IVF5): 3.94
